# In US20090214558A1 (Pfizer, published 2009):
# T1: MAdCAM (analyte of the BIAcore experiment) (UniProt Q13477 19-317)
# T1 construct: The antibodies are called anti-hMAdCAM; also called Mucosal addressin cell adhesion molecule
# T1 sequence (looked up): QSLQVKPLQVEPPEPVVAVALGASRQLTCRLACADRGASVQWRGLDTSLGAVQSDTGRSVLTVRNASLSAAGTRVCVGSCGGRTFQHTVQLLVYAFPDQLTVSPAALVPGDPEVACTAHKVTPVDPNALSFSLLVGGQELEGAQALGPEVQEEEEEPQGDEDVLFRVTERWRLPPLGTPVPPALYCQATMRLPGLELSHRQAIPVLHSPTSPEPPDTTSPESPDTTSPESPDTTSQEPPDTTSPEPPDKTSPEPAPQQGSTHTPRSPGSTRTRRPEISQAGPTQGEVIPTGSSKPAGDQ
# Experiments:
# [1] = target: T2, MAdCAM-IgG1 Fc fusion protein; assay: inhibition of adhesion of calcein-loaded JY cells to plate-coated MAdCAM-IgG1 Fc fusion (fluorescence)
# T2 construct: Made in CHO-DHFR cells and coated on plates at 4.5 µg/mL
# Experimental: The cells were washed twice with RPMI 1640 media (Gibco) containing 2 mM L-glutamine (Gibco) by centrifugation (240 g), resuspending the final cell pellet at 2×10⁶ cells/mL in RPMI 1640 for Calcein AM loading. Calcein AM (Molecular Probes #C-3099) was added to the cells as a 1:200 dilution in DMSO (ca. final concentration 5 μM) and the cells protected from light during the course of the incubation (37° C. for 30 min). During this cell incubation step the antibodies to be tested, were diluted as follows: for single dose testing, the antibodies were made up to 3 μg/mL (1 μg/mL final) in 0.1 mg/mL BSA (Sigma#A3059) in PBS; for full IC₅₀ curves, the antibodies were diluted in 0.1 mg/mL BSA/PBS, with 3 μg/mL (1 μg/mL final) being the top concentration, then doubling dilutions (1:2 ratio) across the plate. The final well of the row was used for determining total binding, so 0.1 mg/ml BSA in PBS was used.
# After blocking, the plate contents were flicked out and 50 μL of antibodies/controls were added to each well and the plate incubated at 37° C. for 20 min. During this time, Calcein-loaded JY cells were washed once with RPMI 1640 media containing 10% fetal bovine serum and once with 1 mg/mL BSA/PBS by centrifugation, resuspending the final cell pellet to 1×10⁶/mL in 1 mg/mL BSA/PBS. 100 μL of cells were added to each well of the U bottomed plate, the plate sealed, briefly centrifuged (1000 rpm for 2 min) and the plate then incubated at 37° C. for 45 min. At the end of this time, the plates were washed with a Skatron plate washer and fluorescence measured using a Wallac Victor² 1420 Multilabel Reader (excitation λ485 nm, emission λ535 nm count from top, 8 mm from bottom of plate, for 0.1 sec with normal emission aperture). For each antibody concentration, percent adhesion was expressed as a percentage of maximal fluorescence response in the absence of any antibody minus fluorescence associated with non-specific binding. The IC₅₀ value is defined as the anti-MAdCAM antibody concentration at which the adhesion response is decreased to 50% of the response in the absence of anti-MAdCAM antibody. Antibodies that were able to inhibit the binding of JY cells to MAdCAM-IgG₁ Fc fusion with an IC₅₀ value <0.1 μg/mL, were considered to have potent antagonist activity and were progressed to the MAdCAM-CHO adhesion assay.
# Target sequence in this assay (chain, as listed by the source limits assumed): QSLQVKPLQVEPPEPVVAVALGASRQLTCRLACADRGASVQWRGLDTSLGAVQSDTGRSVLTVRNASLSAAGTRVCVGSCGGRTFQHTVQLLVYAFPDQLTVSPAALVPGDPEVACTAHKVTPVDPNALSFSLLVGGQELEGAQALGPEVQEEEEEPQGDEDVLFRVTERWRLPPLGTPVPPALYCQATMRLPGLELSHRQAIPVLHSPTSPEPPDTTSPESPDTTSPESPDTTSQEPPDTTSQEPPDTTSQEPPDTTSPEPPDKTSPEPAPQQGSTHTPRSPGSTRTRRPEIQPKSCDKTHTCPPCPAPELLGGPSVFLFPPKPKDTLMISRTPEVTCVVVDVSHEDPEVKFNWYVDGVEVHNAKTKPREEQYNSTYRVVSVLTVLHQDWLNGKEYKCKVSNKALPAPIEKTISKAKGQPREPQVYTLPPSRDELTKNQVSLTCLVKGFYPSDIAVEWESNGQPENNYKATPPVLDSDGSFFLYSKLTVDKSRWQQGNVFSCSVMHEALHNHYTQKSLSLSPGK
# [2] = target: T1, MAdCAM (analyte of the BIAcore …); assay: BIAcore (SPR); antibody immobilised, MAdCAM injected
# [3] = target: T1, MAdCAM (analyte of the BIAcore …); assay: BIAcore (SPR); antibody immobilised, MAdCAM injected; footnote: below the instrument's lower limit of 5 × 10^-6 s^-1
# [4] = target: T1, MAdCAM (analyte of the BIAcore …); assay: BIAcore (SPR); KD restated from the instrument's off-rate limit; the footnote says 7.16.6_V, but the ka used and the asterisk belong to 7.16.6_S; KD bound restated from the BIAcore off-rate limit (5 × 10^-6 s^-1), not the fitted 23.2 pM
# [5] = target: T2, MAdCAM-IgG1 Fc fusion protein; assay: MAdCAM-IgG1 Fc fusion: JY cell binding assay (inhibition of JY cell adhesion)
Binder,IC50 [1] [µg/mL],Kd [2] [nM],koff [2] [s⁻¹],kon [2] [M⁻¹ s⁻¹],IC50 [5] [µg/mL],other results
"7.16.6_L (antibody, V domains shown, The light chain is the parent 7.16.6 kappa chain, rebuilt as for m1; also called 7.16.6_L variant) VH: QVQLVQSGAEVKKPGASVKVSCKASGYTFTSYGINWVRQAPGQGLEWMGWISVYSGNTNYAQKLQGRVTMTADTSTSTAYMDLRSLRSDDTAVYYCAREGSSSSGDYYYGMDVWGQGTTVTVSS VL: DIVMTQTPLSLSVTPGQPASISCKSSQSLLHTDGTTYLYWYLQKPGQPPQLLIYEVSNRFSGVPDRFSGSGSGTDFTLKISRVEAEDVGIYYCMQNIQLPWTFGQGTKVEIKR",0.0356,0.0795,1.21e-05,152000,–,–
"7.16.6_LVS (antibody, human IgG2, kappa, V domains shown, Recombinant, from transiently transfected FreeStyle HEK293 cells) VH: QVQLVQSGAEVKKPGASVKVSCKASGYTFTSYGINWVRQAPGQGLEWMGWISVYSGNTNYAQKLQGRVTMTADTSTSTAYMDLRSLRSDDTAVYYCAREGSSSSGDYYYGMDVWGQGTTVTVSS VL: DIVMTQTPLSLSVTPGQPASISCKSSQSLLHTDGTTYLYWYLQKPGQPPQLLIYEVSNRFSGVPDRFSGSGSGTDFTLKISRVEAEDVGVYYCMQSIQLPWTFGQGTKVEIKR",0.0458,0.119,2.31e-05,194000,–,–
"7.16.6_S (antibody, human IgG2, kappa, V domains shown, Recombinant, from transiently transfected FreeStyle HEK293 cells; also called 7.16.6-5; 7.16.6_5) VH: QVQLVQSGAEVKKPGASVKVSCKASGYTFTSYGINWVRQAPGQGLEWMGWISVYSGNTNYAQKVQGRVTMTADTSTSTAYMDLRSLRSDDTAVYYCAREGSSSSGDYYYGMDVWGQGTTVTVSS VL: DIVMTQTPLSLSVTPGQPASISCKSSQSLLHTDGTTYLYWYLQKPGQPPQLLIYEVSNRFSGVPDRFSGSGSGTDFTLKISRVEAEDVGIYYCMQSIQLPWTFGQGTKVEIKR",0.0342,0.0232,–,183000,–,koff [3]: 4.27e-06 s⁻¹; Kd [4]: < 0.0273 nM
"7.16.6_V (antibody, human IgG2, kappa, V domains shown, Recombinant, from transiently transfected FreeStyle HEK293 cells; also called 7.16.6_V adduct) VH: QVQLVQSGAEVKKPGASVKVSCKASGYTFTSYGINWVRQAPGQGLEWMGWISVYSGNTNYAQKVQGRVTMTADTSTSTAYMDLRSLRSDDTAVYYCAREGSSSSGDYYYGMDVWGQGTTVTVSS VL: DIVMTQTPLSLSVTPGQPASISCKSSQSLLHTDGTTYLYWYLQKPGQPPQLLIYEVSNRFSGVPDRFSGSGSGTDFTLKISRVEAEDVGVYYCMQNIQLPWTFGQGTKVEIKR",0.0412,0.162,2.49e-05,153000,–,–
"7.16.6_VS (antibody, human IgG2, kappa, V domains shown, Recombinant, from transiently transfected FreeStyle HEK293 cells; also called 7.16.6_VS adduct) VH: QVQLVQSGAEVKKPGASVKVSCKASGYTFTSYGINWVRQAPGQGLEWMGWISVYSGNTNYAQKVQGRVTMTADTSTSTAYMDLRSLRSDDTAVYYCAREGSSSSGDYYYGMDVWGQGTTVTVSS VL: DIVMTQTPLSLSVTPGQPASISCKSSQSLLHTDGTTYLYWYLQKPGQPPQLLIYEVSNRFSGVPDRFSGSGSGTDFTLKISRVEAEDVGVYYCMQSIQLPWTFGQGTKVEIKR",0.0582,0.0908,2.18e-05,240000,–,–
"6.22.2 (antibody, V domains shown) VH: QVQLVESGGGVVQPGRSLRLSCAASGHTFSSDGMHWVRQAPGKGLEWVAIIWYDGSNKYYADSVKGRFTISRDNSKNTLYLQMNSLRAEDTAVYYCARDPGYYYGMDVWGQGTTVTVSS VL: EIVLTQSPDFQSVTPKEKVTITCRASQRIGSSLHWYQQKPDQSPKLLIKYASQSFSGVPSRFSGSGSGTNFTLTINGLEAEDAATYYCHQSGRLPLTFGGGTKVEIKR",–,–,–,–,0.018,–
"6.22.2-mod_V (antibody, human IgG2, kappa, V domains shown, Purified recombinant antibody) VH: QVQLVESGGGVVQPGRSLRLSCAASGFTFSSDGMHWVRQAPGKGLEWVAVIWYDGSNKYYADSVKGRFTISRDNSKNTLYLQMNSLRAEDTAVYYCARDPGYYYGMDVWGQGTTVTVSS VL: EIVLTQSPDFQSVTPKEKVTITCRASQRIGSSLHWYQQKPDQSPKLLIKYASQSFSGVPSRFSGSGSGTDFTLTINSLEAEDAATYYCHQSGRLPLTFGGGTKVEIKR",–,–,–,–,0.076,–
"6.34.2 (antibody, V domains shown) VH: QVQLVESGGGVVQPGRSLRLSCAASGFTFSSYGMHWVRQAPGKGLEWVAVISNDGNNKYYADSVKGRFTISRDNSKNTLYLQMNSLSAEDTAVYYCARDSTAITYYYYGMDVWGQGTTVTVSS VL: DIQMTQSPSSLSASVGDRVTITCRASQNISSYLNWFQQKPGKAPKLLIYAASGLKRGVPSRFSGSGSGTDFTLTIRTLQPDDFATYSCHQSYSLPFTFGPGTKVDIKR",–,–,–,–,0.013,–
"6.34.2-mod_SSQ (antibody, human IgG2, kappa, V domains shown, Purified recombinant antibody) VH: QVQLVESGGGVVQPGRSLRLSCAASGFTFSSYGMHWVRQAPGKGLEWVAVISNDGNNKYYADSVKGRFTISRDNSKNTLYLQMNSLRAEDTAVYYCARDSTAITYYYYGMDVWGQGTTVTVSS VL: DIQMTQSPSSLSASVGDRVTITCRASQSISSYLNWYQQKPGKAPKLLIYAASSLSQGVPSRFSGSGSGTDFTLTISSLQPEDFATYYCHQSYSLPFTFGPGTKVDIKR",–,–,–,–,0.086,–
"6.67.1 (antibody, V domains shown) VH: QVQLQESGPGLVKPSETLSLTCTVSGDSISSNYWSWIRQPAGKGLEWIGRIYTSGGTNSNPSLRGRVTILADTSKNQFSLKLSSVTAADTAVYYCARDRITIIRGLIPSFFDYWGQGTLVTVSS VL: not shown",–,–,–,–,0.013,–
"6.67.1-mod_Y (antibody, V domains shown) VH: QVQLQESGPGLVKPSETLSLTCTVSGDSISSNYWSWIRQPAGKGLEWIGRIYTSGGTNSNPSLRGRVTMSVDTSKNQFSLKLSSVTAADTAVYYCARDRITIIRGLIPSFFDYWGQGTLVTVSS VL: not shown",–,–,–,–,0.063,–
"6.77.1-mod_ΔS (antibody, human IgG2, kappa, V domains shown, Purified recombinant antibody; also called 6.77.1-mod_ΔAS) VH: EVQLVESGGGLVKPGGSLRLSCAASGFTFSSYSMNWVRQAPGKGLEWVSSISSSSSYIYYADSVKGRFTISRDNAKNSLYLQMNSLRAEDTAVYYCARDGYSSGWYYYYYGMDVWGQGTTVTVSS VL: DIVMTQTPLSLSVTPGQPASISCKSSQSLLLSDGKTYLNWYLQKPGQPPQLLIYEVSNRFSGVPDRFSGSGSGTDFTLKISRVEAEDVGVYSCMQSIQLMSSFGQGTKLEIKR",–,–,–,–,0.0485,–
"9.8.2-mod_ΔRGAYH,D (antibody, human IgG4, kappa, V domains shown, Purified recombinant antibody; The heavy-chain constant region as printed is IgG4-like; also called 9.8.2_ΔRGAYH,D) VH: QVQLVESGGGVVQPGRSLRLSCAASGFTFSSYGMHWVRQAPGKGLEWVAVIWYDGSNEYYADSVKGRFTISRDNSKNTLYLQMNSLRAEDTAVYYCAFDYWGQGTLVTVSS VL: DIQMTQSPSSLSASVGDRVTITCQASQDISNYLNWYQQKPGKAPKLLIYDASNLETGVPSRFSGSGSGTDFTFTISSLQPEDIATYSCQHSDNLITFGQGTRLEIKR",–,–,–,–,0.072,–
